Reference: patent publication US20190010233A1

Experiments:
[1] = biological target: human PD-L1^ECD-hFc protein (human) (UniProt Q9NZQ7); assay: ELISA, 0.041 nM mAb
[2] = biological target: cyno PD-L1^ECD-hFc protein (cyno) (UniProt G7PSE7); assay: ELISA, 0.041 nM mAb
[3] = biological target: full length human PD-L1 on cells (human) (UniProt Q9NZQ7); assay: FACS CHOK1-hPD-L1, 0.3 nM mAb
[4] = biological target: cyno PD-L1^ECD-hFc protein (cyno) (UniProt G7PSE7); assay: ELISA, 30 nM mAb
[5] = biological target: human PD-L1^ECD-hFc protein (human) (UniProt Q9NZQ7); assay: ELISA, 0.123 nM mAb
[6] = biological target: cyno PD-L1^ECD-hFc protein (cyno) (UniProt G7PSE7); assay: ELISA, 0.123 nM mAb
[7] = biological target: full length human PD-L1 on cells (human) (UniProt Q9NZQ7); assay: FACS CHOK1-hPD-L1, 0.0003 nM mAb
[8] = biological target: full length cyno PD-L1 on cells (cyno) (UniProt G7PSE7); assay: FACS CHO-K1-cPD-L1, 0.3 nM mAb
[9] = biological target: full length cyno PD-L1 on cells (cyno) (UniProt G7PSE7); assay: FACS CHO-K1-cPD-L1, 1 nM mAb
[10] = biological target: full length cyno PD-L1 on cells (cyno) (UniProt G7PSE7); assay: FACS CHO-K1-cPD-L1, 0.1 nM mAb
[11] = biological target: full length human PD-L1 on cells (human) (UniProt Q9NZQ7); assay: FACS CHO-K1-hPD-L1, 10 nM mAb
[12] = biological target: human PD-L1^ECD-hFc protein (human) (UniProt Q9NZQ7); assay: ELISA, 10 nM mAb
[13] = biological target: human PD-L1^ECD-hFc protein (human) (UniProt Q9NZQ7); assay: ELISA, 30 nM mAb
[14] = biological target: cyno PD-L1^ECD-hFc protein (cyno) (UniProt G7PSE7); assay: ELISA, 30 nM mAb; remark: listed apart in the source
[15] = biological target: human PD-L1^ECD-hFc protein (human) (UniProt Q9NZQ7); assay: ELISA, 1.111 nM mAb
[16] = biological target: cyno PD-L1^ECD-hFc protein (cyno) (UniProt G7PSE7); assay: ELISA, 1.111 nM mAb
[17] = biological target: cyno PD-L1^ECD-hFc protein (cyno) (UniProt G7PSE7); assay: ELISA, 10 nM mAb
[18] = biological target: full length human PD-L1 on cells (human) (UniProt Q9NZQ7); assay: FACS CHOK1-hPD-L1, 300 nM mAb
[19] = biological target: full length human PD-L1 on cells (human) (UniProt Q9NZQ7); assay: FACS CHOK1-hPD-L1, 3 nM mAb
[20] = biological target: human PD-L1^ECD-hFc protein (human) (UniProt Q9NZQ7); assay: ELISA, 0.0001 nM mAb
[21] = biological target: cyno PD-L1^ECD-hFc protein (cyno) (UniProt G7PSE7); assay: ELISA, 0.0001 nM mAb
[22] = biological target: human PD-L1^ECD-hFc protein (human) (UniProt Q9NZQ7); assay: ELISA, 100 nM mAb
[23] = biological target: cyno PD-L1^ECD-hFc protein (cyno) (UniProt G7PSE7); assay: ELISA, 100 nM mAb
[24] = biological target: full length cyno PD-L1 on cells (cyno) (UniProt G7PSE7); assay: FACS CHO-K1-cPD-L1, 30 nM mAb
[25] = biological target: full length human PD-L1 on cells (human) (UniProt Q9NZQ7); assay: FACS CHO-K1-hPD-L1, 100.00 nM mAb
[26] = biological target: human PD-L1^ECD-hFc protein (human) (UniProt Q9NZQ7); assay: ELISA, 3 nM mAb
[27] = biological target: cyno PD-L1^ECD-hFc protein (cyno) (UniProt G7PSE7); assay: ELISA, 3 nM mAb
[28] = biological target: full length cyno PD-L1 on cells (cyno) (UniProt G7PSE7); assay: FACS CHO-K1-cPD-L1, 3 nM mAb
[29] = biological target: full length cyno PD-L1 on cells (cyno) (UniProt G7PSE7); assay: FACS CHO-K1-cPD-L1, 10 nM mAb
[30] = biological target: full length cyno PD-L1 on cells (cyno) (UniProt G7PSE7); assay: FACS CHO-K1-cPD-L1, 0.03 nM mAb
[31] = biological target: human PD-L1^ECD-hFc protein (human) (UniProt Q9NZQ7); assay: ELISA, 0.3 nM mAb
[32] = biological target: cyno PD-L1^ECD-hFc protein (cyno) (UniProt G7PSE7); assay: ELISA, 0.3 nM mAb
[33] = biological target: human PD-L1^ECD-hFc protein (human) (UniProt Q9NZQ7); assay: ELISA, 10 nM mAb; remark: listed apart in the source
[34] = biological target: cyno PD-L1^ECD-hFc protein (cyno) (UniProt G7PSE7); assay: ELISA, 10 nM mAb; remark: listed apart in the source
[35] = biological target: full length human PD-L1 on cells (human) (UniProt Q9NZQ7); assay: FACS CHO-K1-hPD-L1, 0.1 nM mAb

Sequence of human PD-L1^ECD-hFc protein (human) (Q9NZQ7 19-239): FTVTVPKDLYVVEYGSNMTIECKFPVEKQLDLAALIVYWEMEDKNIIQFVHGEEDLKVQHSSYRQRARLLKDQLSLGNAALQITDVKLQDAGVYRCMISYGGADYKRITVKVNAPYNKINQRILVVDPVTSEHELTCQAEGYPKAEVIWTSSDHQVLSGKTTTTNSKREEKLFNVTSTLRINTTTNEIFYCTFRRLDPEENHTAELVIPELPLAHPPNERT
Sequence of full length human PD-L1 on cells (human) (Q9NZQ7 19-290 limits assumed): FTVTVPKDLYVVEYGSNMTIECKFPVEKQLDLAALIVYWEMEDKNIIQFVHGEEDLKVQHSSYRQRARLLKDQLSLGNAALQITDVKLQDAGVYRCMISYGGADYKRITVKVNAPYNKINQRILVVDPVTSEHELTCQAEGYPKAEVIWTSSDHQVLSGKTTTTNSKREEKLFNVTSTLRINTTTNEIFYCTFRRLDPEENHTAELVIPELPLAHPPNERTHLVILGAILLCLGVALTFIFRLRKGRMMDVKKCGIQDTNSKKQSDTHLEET
Sequence of full length cyno PD-L1 on cells (cyno) (G7PSE7 entry or part of it limits assumed): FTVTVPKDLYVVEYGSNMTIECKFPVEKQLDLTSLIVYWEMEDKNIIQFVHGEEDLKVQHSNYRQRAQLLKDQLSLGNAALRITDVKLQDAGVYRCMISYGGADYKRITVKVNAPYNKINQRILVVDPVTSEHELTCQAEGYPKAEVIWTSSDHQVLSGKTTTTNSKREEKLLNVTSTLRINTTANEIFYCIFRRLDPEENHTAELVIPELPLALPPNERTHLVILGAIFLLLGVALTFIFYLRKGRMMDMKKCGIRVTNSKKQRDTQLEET
Sequence of cyno PD-L1^ECD-hFc protein (cyno) (G7PSE7 entry or part of it limits assumed): as the sequence (Q9NZQ7 19-239) above, with A33T, A34S, S62N, R68Q, Q82R, F173L, T185A, T192I, H215L counted along it

Q: With IgG control (human IgG) (antibody) as the substance, how does the OD450 nm [1] read?
A: The OD450 nm was 0.11.

Q: What about the OD450 nm [2] of the same substance?
A: The OD450 nm was 0.11.

Q: And the Mean fluorescence intensity [3]?
A: Its Mean fluorescence intensity is 3.16.

Q: And the OD450 nm [4]?
A: Its OD450 nm is 0.306.

Q: And the OD450 nm [5]?
A: The OD450 nm was 0.11.

Q: And the OD450 nm [6]?
A: Its OD450 nm is 0.11.

Q: And the Mean fluorescence intensity [7]?
A: The Mean fluorescence intensity was 2.79.

Q: And the Mean fluorescence intensity [8]?
A: Its Mean fluorescence intensity is 3.73.

Q: What about the Mean fluorescence intensity [9] of the same substance?
A: The Mean fluorescence intensity was 1.83.

Q: What about the Mean fluorescence intensity [10] of the same substance?
A: Its Mean fluorescence intensity is 2.2.

Q: And the Mean fluorescence intensity [11]?
A: The Mean fluorescence intensity was 2.73.

Q: What about the OD450 nm [12] of the same substance?
A: The OD450 nm was 0.15.

Q: What about the OD450 nm [13] of the same substance?
A: The OD450 nm was 0.315.

Q: And the OD450 nm [14]?
A: The OD450 nm was 0.12.

Q: What about the OD450 nm [15] of the same substance?
A: The OD450 nm was 0.16.

Q: What about the OD450 nm [16] of the same substance?
A: Its OD450 nm is 0.16.

Q: And the OD450 nm [17]?
A: The OD450 nm was 0.134.

Q: And the Mean fluorescence intensity [18]?
A: Its Mean fluorescence intensity is 4.86.

Q: And the Mean fluorescence intensity [19]?
A: Its Mean fluorescence intensity is 3.56.

Q: And the OD450 nm [20]?
A: The OD450 nm was 0.162.

Q: What about the OD450 nm [21] of the same substance?
A: Its OD450 nm is 0.0988.

Q: And the OD450 nm [22]?
A: Its OD450 nm is 0.767.

Q: What about the OD450 nm [23] of the same substance?
A: Its OD450 nm is 0.398.

Q: And the Mean fluorescence intensity [24]?
A: The Mean fluorescence intensity was 4.12.

Q: What about the Mean fluorescence intensity [25] of the same substance?
A: Its Mean fluorescence intensity is 2.7.

Q: What about the OD450 nm [26] of the same substance?
A: Its OD450 nm is 0.277.

Q: What about the OD450 nm [27] of the same substance?
A: Its OD450 nm is 0.282.

Q: And the Mean fluorescence intensity [28]?
A: Its Mean fluorescence intensity is 3.91.

Q: And the Mean fluorescence intensity [29]?
A: Its Mean fluorescence intensity is 1.95.

Q: And the Mean fluorescence intensity [30]?
A: The Mean fluorescence intensity was 3.79.

Q: And the OD450 nm [31]?
A: Its OD450 nm is 0.293.

Q: And the OD450 nm [32]?
A: The OD450 nm was 0.28.

Q: And the OD450 nm [33]?
A: Its OD450 nm is 0.225.

Q: What about the OD450 nm [34] of the same substance?
A: The OD450 nm was 0.15.

Q: What about the Mean fluorescence intensity [35] of the same substance?
A: Its Mean fluorescence intensity is 2.55.
